Test results reported in patent US20170152311A1 (published 2017).

Tests used:
recombinant human M-CSF [1] = target: T1, recombinant human M-CSF (human, UniProt P09603 33-190, limits assumed); test: SPR (Biacore), M-CSF amine-coupled on CM5 chip, antibody flowed 100 nM to 1.5 nM, 25 C, 1:1 model, n = 21
T1 construct: The active form is described as a disulfide bonded dimer; also called M-SCF; CSF-1
T1 sequence: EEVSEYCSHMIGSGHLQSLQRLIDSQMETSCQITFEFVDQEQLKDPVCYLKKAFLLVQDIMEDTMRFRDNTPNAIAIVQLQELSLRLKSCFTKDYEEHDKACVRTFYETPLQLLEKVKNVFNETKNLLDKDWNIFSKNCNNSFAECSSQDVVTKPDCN
Experimental: (§1) To determine the relative differences in the binding affinity of intact antibodies by Biacore analysis, M-CSF was immobilized onto CMS biosensor chip via amine coupling. 0.05 μg/ml M-CSF in 10 mM Na-Acetate pH 4.0 was injected at 1 μl/min for 5 minutes to achieve RL=6-12 RU. Test antibody or Fab fragments were flowed over the modified biosensor surface at varying concentrations ranging from 100 nM to 1.5 nM in 2-fold dilutions. Test antibodies were diluted in 0.01 M HEPES pH 7.4, 0.15 M NaCL, 3 mM EDTA, 0.005% Surfactant P20 (HBS-EP) and all experiments were done at 25° C. Each concentration point and buffer blanks were run in triplicate, and data was collected over 3 minutes of association and 8 minutes of dissociation. Kinetic and affinity constants were determined using Biaevaluation software with a 1:1 interaction model/global fit.

recombinant human M-CSF [2] = target: T1, recombinant human M-CSF; test: SPR (Biacore), antibody captured on anti-mouse Fc chip, M-CSF flowed, 25 C, 1:1 model
Experimental: Binding properties of the aforementioned antibodies were analyzed using Biacore analyses. […] The aforementioned antibodies were then captured on the anti-mouse Fc/CM5 biosensor chip at 1.5 μg/ml for 3 min at 2 μl/min. MCSF was flowed over the modified biosensor surface at varying concentrations (Rmax ˜15). Test antibodies and antigen were diluted in 0.01 M HEPES pH 7.4, 0.15 M NaCL, 3 mM EDTA, 0.005% Surfactant P20 (HBS-EP). All experiments were performed at 25° C. Kinetic and affinity constants were determined using Biaevaluation software (Biacore) with a 1:1 interaction model/global fit.

recombinant human M-CSF [3] = target: T1, recombinant human M-CSF; test: SPR (Biacore), M-CSF amine-coupled on CM5 chip, antibody or Fab flowed, 25 C, 1:1 model
Experimental: Specifically, M-CSF was immobilized onto CM5 biosensor chip via amine coupling. 0.05 μg/ml M-CSF in 10mM Na Acetate pH 4.0 was injected at 1 μl/min for 5 minutes to achieve RL=6-12 RU. Test antibody (or Fab fragment) were flowed over the modified biosensor surface at varying concentrations. Test antibodies were diluted in 0.01 M HEPES pH 7.4, 0.15 M NaCL, 3 mM EDTA, 0.005% Surfactant P20 (HBS-EP) and all experiments were done at 25° C. Kinetic and affinity constants were determined using Biaevaluation software (Biacore) with a 1:1 interaction model/global fit.

recombinant human M-CSF [4] = target: T1, recombinant human M-CSF; test: cell-based or functional assay
recombinant human M-CSF [5] = target: T1, recombinant human M-CSF; test: SPR (Biacore), M-CSF amine-coupled on CM5 chip, antibody flowed, 25 C, 1:1 model, n = 21
Experimental: as §1

recombinant human M-CSF [6] = target: T1, recombinant human M-CSF; test: SPR (Biacore), M-CSF amine-coupled on CM5 chip, antibody flowed
Experimental: as §1

recombinant human M-CSF [7] = target: T1, recombinant human M-CSF; test: SPR (Biacore), M-CSF amine-coupled on CM5 chip, antibody flowed 100 nM to 1.5 nM, 25 C, 1:1 model, n = 2
Experimental: as §1

recombinant human M-CSF [8] = target: T1, recombinant human M-CSF; test: SPR (Biacore), M-CSF amine-coupled on CM5 chip, antibody flowed, 25 C, 1:1 model, n = 2
Experimental: as §1

recombinant human M-CSF [9] = target: T1, recombinant human M-CSF; test: cell-based or functional assay; remark: listed apart in the source

B1: murine monoclonal antibody RX1 (antibody, V domains shown)
VH: DVQLQESGPGLVKPSQSLSLTCTVTDYSITSDYAWNWIRQFPGNKLEWMGYISYSGSTSYNPSLKSRISITRDTSKNQFFLQLNSVTTEDTATYYCASFDYAHAMDYWGQGTSVTVSS
VL: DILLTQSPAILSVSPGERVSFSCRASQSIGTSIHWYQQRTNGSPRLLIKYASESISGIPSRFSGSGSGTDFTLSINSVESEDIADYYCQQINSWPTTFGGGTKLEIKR
notes: Intact murine antibody; The hybridoma or commercial RX1 and the recombinant murine RX1 (rRX1, rmRX1) are treated as one molecule; also called Murine RX1; rRX1(mouse)
Kd (recombinant human M-CSF [1]): 0.7 nM | koff (recombinant human M-CSF [1]): 0.000156 s⁻¹ | kon (recombinant human M-CSF [1]): 223000 M⁻¹ s⁻¹ | Kd (recombinant human M-CSF [2]): 0.16 nM | koff (recombinant human M-CSF [2]): 0.00027 s⁻¹ | kon (recombinant human M-CSF [2]): 1.64e+06 M⁻¹ s⁻¹ | Kd (recombinant human M-CSF [3]): 1 nM | koff (recombinant human M-CSF [3]): 0.000235 s⁻¹ | kon (recombinant human M-CSF [3]): 234000 M⁻¹ s⁻¹ | EC50 (M-CSF neutralization) (recombinant human M-CSF [4]): 2 ng/mL | Kd (recombinant human M-CSF [5]): 0.7 nM | koff (recombinant human M-CSF [5]): 0.000156 s⁻¹ | kon (recombinant human M-CSF [5]): 223000 M⁻¹ s⁻¹

B2: heRX1-10.G2 (antibody, V domains shown)
VH: QVQLQESGPGLVKPSQTLSLTCTVSDYSITSDYAWNWIRQFPGKGLEWMGYISYSGSTSYNPSLKSRITISRDTSKNQFSLQLNSVTAADTAVYYCASFDYAHAMDYWGQGTTVTVSS
VL: DIVLTQSPAFLSVTPGEKVTFTCQASQSIGTSIHWYQQKTDQAPKLLIKYASESISGIPSRFSGSGSGTDFTLTISSVEAEDAADYYCQQINSWPTTFGGGTKLEIKR
notes: not shown: human Gamma-2 heavy chain constant region; human Kappa light chain constant region (the V region entry may overlap its start)
fold decrease in binding affinity compared to the parent murine antibody (recombinant human M-CSF [6]): ≥ 7 fold | Kd (recombinant human M-CSF [7]): 6.3 nM | koff (recombinant human M-CSF [7]): 0.0011 s⁻¹ | kon (recombinant human M-CSF [7]): 173000 M⁻¹ s⁻¹ | Kd (recombinant human M-CSF [8]): 6.3 nM | koff (recombinant human M-CSF [8]): 0.0011 s⁻¹ | kon (recombinant human M-CSF [8]): 173000 M⁻¹ s⁻¹ | IC50 Fold Loss (recombinant human M-CSF [9]): 2.2 fold
